Results: PMC9798557 (2022)

Experiments:
[1] = target: T1, CD38 on CD38-positive cell lines (human, UniProt P28907 1-300); assay: FACS; H929 cells
[2] = target: T1, CD38 on CD38-positive cell lines; assay: FACS; MM1S cells
[3] = target: T1, CD38 on CD38-positive cell lines; assay: FACS; Raji cells
[4] = target: T1, CD38 on CD38-positive cell lines; assay: FACS; Daudi cells
[5] = target: T1, CD38 on CD38-positive cell lines; assay: FACS; Ramos cells
[6] = target: T1, CD38 on CD38-positive cell lines; assay: FACS; MOLP-8 cells
[7] = target: T1, CD38 on CD38-positive cell lines; assay: FACS; SU-DHL-6 cells
[8] = target: T1, CD38 on CD38-positive cell lines; assay: FACS; RPMI 8226 cells

B1: daratumumab (antibody, V domains shown)
VH: EVQLLESGGGLVQPGGSLRLSCAVSGFTFNSFAMSWVRQAPGKGLEWVSAISGSGGGTYYADSVKGRFTISRDNSKNTLYLQMNSLRAEDTAVYFCAKDKILWFGEPVFDYWGQGTLVTVSS
VL: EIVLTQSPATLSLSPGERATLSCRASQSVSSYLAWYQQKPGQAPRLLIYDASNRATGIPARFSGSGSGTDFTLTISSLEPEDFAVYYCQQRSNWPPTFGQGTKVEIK
EC50 [1]: 0.767 µg/mL
EC50 [2]: 0.581 µg/mL
EC50 [3]: 0.321 µg/mL
EC50 [4]: 0.289 µg/mL
EC50 [5]: 0.74 µg/mL
EC50 [6]: 0.28 µg/mL
EC50 [7]: 0.548 µg/mL
EC50 [8]: 1.19 µg/mL
